How the values were obtained:
Experiment in all cases: EMSA; 2 uM protein, 200 nM DNA
Conditions in all cases: protein: recombinant; tags: N-terminal His6; chain copies: 2; label: none (NA-Green stain); blunt
RamR WT = RamR WT (Klebsiella pneumoniae, UniProt A0A0H3GJQ8 1-194)
RamR I141T = RamR I141T (Klebsiella pneumoniae, UniProt A0A0H3GJQ8 1-194, I141T)
RamR L58P = RamR L58P (Klebsiella pneumoniae, UniProt A0A0H3GJQ8 1-194, L58P)

B1: ramA promoter probe (ramA P-F/ramA P-R) (dsDNA)
DNA 1: AAAACGAATCGTCCTGCATGCCCAGGCAGCACCGCGCGAGCGCGCAGGTCGTCGGCAGCCTGAGCCGTTTCATCCGGCATCATGTGGATATATTTCCAGTC
DNA 2: GACTGGAAATATATCCACATGATGCCGGATGAAACGGCTCAGGCTGCCGACGACCTGCGCGCTCGCGCGGTGCTGCCTGGGCATGCAGGACGATTCGTTTT
binding result (RamR WT): binds | binding result (RamR I141T): binds | binding result (RamR L58P): no binding

From PMC12806483, “Dual role of ramR mutation in enhancing immune activation and elevating eravacycline resistance in Klebsiella pneumoniae”
